Experimental data reported in the supplement of paper PMC10126150.
± gives the standard deviation of the averaged measurements.

test system: ATP; test: switch fluorescence ratio, 500 uM ATP over buffer (Cy3 cluster intensity, sum of 5 cycles each) (fold (ratio)); higher = stronger signal-on switching upon ATP binding; sequences stand for … in TCGTCGGCAGCGTCAGATGTGTATAAGAGACAGTTTTTTTTTTTTTTTTTTTTTTTTT…TC; details: aptamer strand: ATP DNA aptamer (quencher-CACCTGGGGGAGTATTGCGGAGGAAGG + anchor), 100 nM annealed; ATP concentration: 500 uM
Summary of the method: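 Exposure to 500 uM ATP lasted 15 min at 22 °C before imaging, and a selection-buffer image was taken beforehand, for Cy3-labelled switching-strand clusters on a modified Illumina MiSeq flow-cell annealed to 100 nM quencher-labelled ATP aptamer. Five buffer/ATP cycles were run with NaOH stripping and re-annealing between them. The fluorescence ratio per cluster is summed target-cycle over summed buffer-cycle Cy3 intensity, averaged per switch-domain sequence. Clusters outside 100-1000 RFU were excluded.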

Sequence | switch fluorescence ratio
CACGATATTC | 1.18 ± 0.027
CGCCTAAACG | 1.04 ± 0.042
CAAGTATGGG | 0.974 ± 0.035
ACGTATAGAG | 0.991 ± 0.042
AACGGGGTAG | 0.983 ± 0.034
TGTAGTTTGG | 1.02 ± 0.032
TGGGTGTAT | 1.01 ± 0.023
AAGTTGCACC | 1 ± 0.067
CGATGGGAGG | 1.06 ± 0.073
ATTTAAGTT | 1.0014 ± 0.00081
AATTATTGGC | 1.02 ± 0.061
TGTAAGGGAA | 1.01 ± 0.018
TATATTATGC | 1.02 ± 0.011
GGTGTCTTCA | 1.06 ± 0.076
TTTCATCTTT | 1.04 ± 0.078
ATAGGCGTGC | 1 ± 0.011
CGTGCGGGAA | 1.004 ± 0.0069
AGTAGCAGCT | 1.03 ± 0.048
AGTTGGCTTG | 1.03 ± 0.03
GTTTGTTTGG | 0.974 ± 0.023
TTATGGCAGA | 1.009 ± 0.01
GGAACATCTG | 1.007 ± 0.0071

Sequence | switch fluorescence ratio
AAATGTGGAA | 0.994 ± 0.018
ATATACGGTA | 1.15 ± 0.03
CTGAGGGGT | 1.05 ± 0.037
ATTACTGGTG | 1.1 ± 0.019
GGGGACGGGC | 1.04 ± 0.075
AACTGGGGTG | 1.03 ± 0.03
ATGGGTAGGG | 0.967 ± 0.017
GCCTGCGGGA | 1.1 ± 0.13
CGCATCGGTC | 1.16 ± 0.049
CGTAAGGGGA | 1.05 ± 0.064
GTTTCTGGCC | 0.98 ± 0.019
GCGGGGACTT | 0.984 ± 0.038
AATTGTCGCG | 1.01 ± 0.012
GATTTACTGG | 1.04 ± 0.024
TTTTGCAGGA | 1.05 ± 0.14
CAGGCTATTT | 1.03 ± 0.049
TTTCGGAGTT | 1.05 ± 0.071
GAAAAGGGAG | 0.974 ± 0.032
AACATTATGT | 1 ± 0.04
GATACATCGG | 1.03 ± 0.018
CAGCGTATTG | 1.04 ± 0.037
CAGTGTCTGA | 1.05 ± 0.037

Sequence | switch fluorescence ratio
GTCGGTCTGG | 1 ± 0.098
CCATAGGGGG | 0.989 ± 0.025
CGTACGGTCT | 1.05 ± 0.059
GGTATGGTAC | 1.086 ± 0.0055
TTGTTTGGTT | 0.983 ± 0.034
TACGTCACCT | 1.71 ± 0.048
ATATGTGGAG | 0.987 ± 0.011
GATGCATGC | 1.22 ± 0.065
AATAATCAGG | 0.9926 ± 0.0086
TAAAAAGCAT | 1.007 ± 0.0031
TGACGGTGTC | 1.02 ± 0.0035
ATATAATTTG | 1.04 ± 0.055
GCGGGCAGGC | 0.99818 ± 0.00079
TGCCGCCTTG | 0.979 ± 0.024
TTATGAGATA | 0.996 ± 0.035
CGGGTAGGGG | 0.996 ± 0.069
ATGTTGTTTG | 0.979 ± 0.014
CCGGTCCCTA | 1 ± 0.011
GGAGGGAGGG | 1.02 ± 0.059
CGTATAATAG | 1.02 ± 0.04
AGTAGGTAAA | 1.03 ± 0.023
AATTTAAATT | 1 ± 0.037

Sequence | switch fluorescence ratio
TCGGGATAAG | 1.01 ± 0.018
ATTATCTGGT | 1.02 ± 0.043
CGCGCTGACA | 1.009 ± 0.0057
AGGTTGGCGT | 0.995 ± 0.029
GGATTTGGTA | 0.978 ± 0.032
ATTGGACAAT | 1.02 ± 0.032
GGGTGGAGCT | 1 ± 0.019
AATCTCCATT | 0.982 ± 0.025
ATGATGGACG | 1.03 ± 0.062
TTGGGGTTCA | 0.9752 ± 0.0084
CAGAGTTCGG | 1.03 ± 0.015
TTCAGGTTTT | 0.99 ± 0.054
GGGTATTGGT | 0.996 ± 0.025
CTCCGATGAT | 3.03 ± 0.62
CATTGAGTTC | 0.978 ± 0.014
GGACTATGGT | 0.981 ± 0.014
CGGCCGGAGT | 0.983 ± 0.0086
AATTGTAGGG | 0.987 ± 0.03
GAATGAAAAT | 0.997 ± 0.022
